Source: paper PMC8113403, “Assembly of Natively Synthesized Dual Chromophores Into Functional Actinorhodopsin” (Frontiers in Microbiology, 2021)

System: Asp85
Test: UV-vis
Conditions: not stated (0.02% DDM solution; pH adjusted with small amounts of HCl or NaOH); Purified, detergent-solubilised holoprotein with all-trans-retinal; no carotenoid; light adaptation not stated

Substance | pKa
Actinorhodopsin ActR-13023 (Candidatus Aquiluna sp. IMCC13023) | ≈ 7.81
Actinorhodopsin ActR-13023 E96Q (Candidatus Aquiluna sp. IMCC13023; E96Q) | 7.67
